Measurements as given in PMC4763255, “Diversity between mammalian tolloid proteinases: Oligomerisation and non-catalytic domains influence activity and specificity” (Scientific Reports, 2016).

T1: ΔN-chordin (UniProt Q9H2X0 127-955)
T1 construct: chordin, N-terminally truncated form called ΔN-chordin
T1 sequence (looked up): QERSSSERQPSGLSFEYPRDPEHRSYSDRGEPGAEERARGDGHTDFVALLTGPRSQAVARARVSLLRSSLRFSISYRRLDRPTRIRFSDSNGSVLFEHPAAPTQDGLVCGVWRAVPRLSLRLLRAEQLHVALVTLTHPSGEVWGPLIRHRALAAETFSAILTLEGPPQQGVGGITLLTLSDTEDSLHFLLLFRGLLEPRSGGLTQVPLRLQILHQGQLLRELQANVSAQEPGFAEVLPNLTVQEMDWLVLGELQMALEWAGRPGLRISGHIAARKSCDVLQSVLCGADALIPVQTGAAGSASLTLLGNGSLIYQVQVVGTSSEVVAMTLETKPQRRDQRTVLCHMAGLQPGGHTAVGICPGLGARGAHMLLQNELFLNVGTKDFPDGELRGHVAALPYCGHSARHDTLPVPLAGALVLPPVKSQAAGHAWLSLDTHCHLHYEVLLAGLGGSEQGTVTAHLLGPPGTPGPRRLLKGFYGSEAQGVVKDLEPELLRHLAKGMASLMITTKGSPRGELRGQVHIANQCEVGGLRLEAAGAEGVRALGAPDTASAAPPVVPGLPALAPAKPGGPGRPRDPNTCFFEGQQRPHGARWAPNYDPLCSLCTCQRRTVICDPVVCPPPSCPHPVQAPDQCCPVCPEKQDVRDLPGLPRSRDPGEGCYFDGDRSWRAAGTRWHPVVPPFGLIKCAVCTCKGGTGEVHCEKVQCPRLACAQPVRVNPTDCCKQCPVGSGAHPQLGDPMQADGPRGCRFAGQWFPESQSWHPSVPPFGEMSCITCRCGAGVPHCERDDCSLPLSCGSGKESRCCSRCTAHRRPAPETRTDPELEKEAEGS


Experiments:
ΔN-chordin = target: T1, ΔN-chordin; experiment: SPR; tolloid fragments immobilised on a GLC chip by amine coupling, ΔN-chordin injected as analyte at increasing concentrations; ProteOn XPR36; 10 mM HEPES, 150 mM NaCl, 2 mM CaCl2, 0.05% Tween 20, pH 7.4, 25 °C; 1:1 Langmuir model; triplicate; details: both partners purified
[1] = target: the molecule itself; experiment: negative-stain electron microscopy, single-particle analysis; TLL-2 ~10 ug/ml in 10 mM HEPES, 500 mM NaCl, 2 mM CaCl2, pH 7.4 on carbon-coated grids, 4% uranyl acetate

Binder	Kd (ΔN-chordin) [nM]	stoichiometry N [1]
TLL2 CUB1-CUB2-EGF1 (domain or fragment, human, UniProt Q9Y6L7 351-617, looked up, mammalian tolloid like-2 (TLL-2), human; domains CUB1, CUB2 and EGF1; Cloned at OPPF-UK in pOPINTTGneo; also called TLL2-C1C2E1; C1C2E1 from TLL-2) CGETLQDTTGNFSAPGFPNGYPSYSHCVWRISVTPGEKIVLNFTSMDLFKSRLCWYDYVEVRDGYWRKAPLLGRFCGDKIPEPLVSTDSRLWVEFRSSSNILGKGFFAAYEATCGGDMNKDAGQIQSPNYPDDYRPSKECVWRITVSEGFHVGLTFQAFEIERHDSCAYDYLEVRDGPTEESALIGHFCGYEKPEDVKSSSNRLWMKFVSDGSINKAGFAANFFKEVDECSWPDHGGCEHRCVNTLGSYKCACDPGYELAADKKMCE	0.247 ± 0.26	
mTLD CUB1-CUB2-EGF1 (domain or fragment, UniProt P13497 322-588, looked up, mammalian tolloid (mTLD), product of the Bmp1 gene; domains CUB1, CUB2 and EGF1 (shared with BMP-1); Cloned at OPPF-UK in pOPINTTGneo; also called mTLD-C1C2E1; C1C2E1 from mTLD/BMP1) CGETLQDSTGNFSSPEYPNGYSAHMHCVWRISVTPGEKIILNFTSLDLYRSRLCWYDYVEVRDGFWRKAPLRGRFCGSKLPEPIVSTDSRLWVEFRSSSNWVGKGFFAVYEAICGGDVKKDYGHIQSPNYPDDYRPSKVCIWRIQVSEGFHVGLTFQSFEIERHDSCAYDYLEVRDGHSESSTLIGRYCGYEKPDDIKSTSSRLWLKFVSDGSINKAGFAVNFFKEVDECSRPNRGGCEQRCLNTLGSYKCSCDPGYELAPDKRRCE	0.278	
TLL1 CUB4-CUB5 (domain or fragment, UniProt O43897 774-1003, looked up, mammalian tolloid like-1 (TLL-1); domains CUB4 and CUB5; Cloned at OPPF-UK in pOPINTTGneo; also called TLL1-C4C5; C4C5 from TLL-1) CEQKIHSPSGLITSPNWPDKYPSRKECTWEISATPGHRIKLAFSEFEIEQHQECAYDHLEVFDGETEKSPILGRLCGNKIPDPLVATGNKMFVRFVSDASVQRKGFQATHSTECGGRLKAESKPRDLYSHAQFGDNNYPGQVDCEWLLVSERGSRLELSFQTFEVEEEADCGYDYVELFDGLDSTAVGLGRFCGSGPPEEIYSIGDSVLIHFHTDDTINKKGFHIRYKSI	0.056 ± 0.01	
TLL2 CUB4-CUB5 (domain or fragment, human, UniProt Q9Y6L7 776-1005, looked up, mammalian tolloid like-2 (TLL-2), human; domains CUB4 and CUB5; Cloned at OPPF-UK in pOPINTTGneo; also called TLL2-C4C5; C4C5 from TLL-2) CAHKISSVEGTLASPNWPDKYPSRRECTWNISSTAGHRVKLTFNEFEIEQHQECAYDHLEMYDGPDSLAPILGRFCGSKKPDPTVASGSSMFLRFYSDASVQRKGFQAVHSTECGGRLKAEVQTKELYSHAQFGDNNYPSEARCDWVIVAEDGYGVELTFRTFEVEEEADCGYDYMEAYDGYDSSAPRLGRFCGSGPLEEIYSAGDSLMIRFRTDDTINKKGFHARYTST	0.25 ± 0.02	
human mammalian tolloid like-2 (TLL-2) (enzyme, UniProt Q9Y6L7 26-1015, looked up, N-linked glycans (5 predicted from primary sequence; shift with PNGaseF), purified as a secreted protein; predicted mass of a monomer printed as 98.58 kDa; also called mTLL2; mTLL-2) ATTSRTERIWPGGVIPYVIGGNFTGSQRAIFKQAMRHWEKHTCVTFIERTDEESFIVFSYRTCGCCSYVGRRGGGPQAISIGKNCDKFGIVAHELGHVVGFWHEHTRPDRDQHVTIIRENIQPGQEYNFLKMEAGEVSSLGETYDFDSIMHYARNTFSRGVFLDTILPRQDDNGVRPTIGQRVRLSQGDIAQARKLYKCPACGETLQDTTGNFSAPGFPNGYPSYSHCVWRISVTPGEKIVLNFTSMDLFKSRLCWYDYVEVRDGYWRKAPLLGRFCGDKIPEPLVSTDSRLWVEFRSSSNILGKGFFAAYEATCGGDMNKDAGQIQSPNYPDDYRPSKECVWRITVSEGFHVGLTFQAFEIERHDSCAYDYLEVRDGPTEESALIGHFCGYEKPEDVKSSSNRLWMKFVSDGSINKAGFAANFFKEVDECSWPDHGGCEHRCVNTLGSYKCACDPGYELAADKKMCEVACGGFITKLNGTITSPGWPKEYPTNKNCVWQVVAPAQYRISLQFEVFELEGNDVCKYDFVEVRSGLSPDAKLHGRFCGSETPEVITSQSNNMRVEFKSDNTVSKRGFRAHFFSDKDECAKDNGGCQHECVNTFGSYLCRCRNGYWLHENGHDCKEAGCAHKISSVEGTLASPNWPDKYPSRRECTWNISSTAGHRVKLTFNEFEIEQHQECAYDHLEMYDGPDSLAPILGRFCGSKKPDPTVASGSSMFLRFYSDASVQRKGFQAVHSTECGGRLKAEVQTKELYSHAQFGDNNYPSEARCDWVIVAEDGYGVELTFRTFEVEEEADCGYDYMEAYDGYDSSAPRLGRFCGSGPLEEIYSAGDSLMIRFRTDDTINKKGFHARYTSTKFQDALHMKK		2
TLL1 CUB1-CUB2-EGF1 (domain or fragment, UniProt O43897 349-615, looked up, mammalian tolloid like-1 (TLL-1); domains CUB1, CUB2 and EGF1; Cloned at OPPF-UK in pOPINTTGneo; also called TLL1-C1C2E1; C1C2E1 from TLL-1) CGETLQESNGNLSSPGFPNGYPSYTHCIWRVSVTPGEKIVLNFTTMDLYKSSLCWYDYIEVRDGYWRKSPLLGRFCGDKLPEVLTSTDSRMWIEFRSSSNWVGKGFAAVYEAICGGEIRKNEGQIQSPNYPDDYRPMKECVWKITVSESYHVGLTFQSFEIERHDNCAYDYLEVRDGTSENSPLIGRFCGYDKPEDIRSTSNTLWMKFVSDGTVNKAGFAANFFKEEDECAKPDRGGCEQRCLNTLGSYQCACEPGYELGPDRRSCE	0.057 ± 0.003	
mTLD CUB4-CUB5 (domain or fragment, UniProt P13497 747-976, looked up, mammalian tolloid (mTLD), product of the Bmp1 gene; domains CUB4 and CUB5; Cloned at OPPF-UK in pOPINTTGneo; also called mTLD-C4C5; C4C5 from mTLD) CDHKVTSTSGTITSPNWPDKYPSKKECTWAISSTPGHRVKLTFMEMDIESQPECAYDHLEVFDGRDAKAPVLGRFCGSKKPEPVLATGSRMFLRFYSDNSVQRKGFQASHATECGGQVRADVKTKDLYSHAQFGDNNYPGGVDCEWVIVAEEGYGVELVFQTFEVEEETDCGYDYMELFDGYDSTAPRLGRYCGSGPPEEVYSAGDSVLVKFHSDDTITKKGFHLRYTST	0.19 ± 0.02	
